Assay results taken from patent US9326950B2, “Self-assembling nanoparticles composed of transmembrane peptides and their application for specific intra-tumor delivery of anti-cancer drugs” (The United States of America, as represented by the …, priority 2006, dated 2016).
Where no end group is shown, it is not given here.

Key:
[1] = Fluorescence energy transfer between WMC77 and Alexa 546-labeled nanoparticles; assay type: physicochemical; conditions: WMC77 final concentration 300 nM
[2] = Multi-angle light scattering, molecular weight of peptide aggregates and degree of aggregation; assay type: physicochemical; conditions: for MW (g/mol): 0.1 M Tris-HCl pH 7.2
Procedure: To determine the influence of hydrophilic tail length on nanoparticle aggregation, the degree of aggregation was determined by multi-angle light scattering for TM peptides with the amino acid sequences of SEQ ID NO: 1; SEQ ID NO: 1-PEG11; SEQ ID NO: 1-PEG27; SEQ ID NO: 1-PEG38; and SEQ ID NO: 1-GGGGG.
The peptides were dissolved in DMSO and diluted with 0.1 M Tris-HCl buffer (pH 7.2) to provide 0.4 mg/ml peptide solutions. This was used for further dilutions. The final concentration of DMSO was either 2.5% or 1.25% (kept constant for all dilutions in the series). The samples were sonicated at maximum intensity for 10 minutes and left at room temperature overnight (about 20 hours before measurements). The following day, the samples were centrifuged at 13200 rpm for 30 minutes.
Light scattering (LS) studies were performed by a DAWN EOS multi-angle detector (Wyatt Technology Corp., Santa Barbara, Calif.) at a laser wavelength of 690 nm. The LS detector was connected with an Agilent 1100 HPLC system (Agilent Technologies, Palo Alto, Calif.). The MALS detector was calibrated with HPLC grade toluene, 99.8% (Aldrich Chemicals, Milwaukee, Wis.), which was filtered through a […] Anotop-25 inorganic membrane filter and then normalized with albumin (bovine) 98% monomer (Sigma Chemicals, St. Louis, Mo.). The data were collected and processed using Astra software (Wyatt Technology Corp.; version 4.90.04).
To determine the molecular weight of the peptide aggregates and the aggregation state, LS micro-batch measurements were performed. In brief, solvent was delivered through the HPLC system, bypassing the column compartment, at a flow rate of 0.05 ml/min. 900 μl samples with different peptide concentrations were injected through the HPLC autosampler. Four peptide concentrations were analyzed (i.e., 0.05 mg/ml, 0.1 mg/ml, 0.2 mg/ml, and 0.4 mg/ml). The concentrations were determined from weight measurements, since strong light scattering made traditional UV-absorbance determination inaccurate. The LS signal was collected for each concentration. Molecular weight was determined for each concentration separately using Astra software with a Debye plot and the Zimm equation. A single slice of collected signal giving the smallest error was chosen for molecular weight calculation at each concentration.

[3] = Transmission electron microscopy of peptide nanoparticles; assay type: physicochemical; conditions: negative charges replaced by positive charges
Procedure: Peptides were solubilized in DMSO to yield 32 mg/ml solution. DMSO stocks were diluted with phosphate buffered saline (PBS) to produce 0.05-0.5 mg/ml solutions. Two μl of a sample were applied directly on microscopy grids, air-dried, stained with 0.5% (w/v) osmium tetroxide (OsO4), and visualized with a Hitachi H-7000 electron microscope.

[4] = WMC77 fluorescence emission with increasing amounts of nanoparticles; assay type: physicochemical; conditions: increasing amounts of the nanoparticles
Procedure: FIG. 1 is a graph of fluorescence emission intensity (a.u.) versus concentration (mg/ml) of nanoparticles comprising SEQ ID NO: 1-PEG11 (represented by circles) or SEQ ID NO: 1-PEG38 (represented by open squares).
FIG. 2 is a graph of wavelength maximum (nm) versus concentration (μM) of nanoparticles comprising SEQ ID NO: 1-PEG11 (represented by circles) or SEQ ID NO: 1-PEG38 (represented by open squares).
Various amounts of nanoparticles (SEQ ID NO:1-PEG11 or SEQ ID NO 1-PEG38) were added to solutions of WMC77. The fluorescence emission intensity and shift in emission maxima were measured with the results depicted in FIGS. 1 and 2.

[5] = test system: MDA-MB-231 breast cancer cells; assay: Survival in mouse model of breast cancer lung metastasis; assay type: in vivo, nude mice
Procedure: FIG. 3 is a graph of percent survival (%) versus days on treatment for three groups of nude mice intravenously injected with one million MDA-MB-231 breast cancer cells. On the day following the intravenous injection with the breast cancer cells and continuing twice weekly, the mice were intraperitoneally injected with (1) PBS only (Control); (2) 3 mg/kg of nanoparticles of SEQ ID NO: 1-PEG27 dissolved in PBS (X4-4-6, 3 mg/kg); or (3) 12 mg/kg of nanoparticles of SEQ ID NO: 1-PEG27 dissolved in PBS (X4-4-6, 12 mg/kg).
One million MDA-MB-231 breast cancer cells were injected in nude mice intraveneously on Day 0. On Day 1 and continuing twice weekly, mice were intraperitoneally injected with (1) 3 mg/kg of nanoparticles of the TM peptide of SEQ ID NO: 1-PEG27 dissolved in PBS; (2) 12 mg/kg of nanoparticles of the TM peptide of SEQ ID NO: 1-PEG27 dissolved in PBS; or (3) a control (PBS only).

[6] = test system: MDA-231 breast cancer cells; conditions: mouse, in vivo
Procedure: A CXCR4-TM domain 2-derived pegylated peptide labeled with Alexa546 fluorescent dye was prepared. […] Ten μl of peptide were diluted with 630 μl PBS (to produce 2 mg/ml peptide solution), sonicated for 10 minutes, and used for intratumoral injection.
Nude mice were inoculated in a breast pad with one million MDA-231 breast cancer cells. Six weeks later, when tumor sizes reached about 5 mm in diameter, 0.1 ml of 2 mg/ml solution of the fluorescent nanoparticles in PBS were injected into a breast pad near the tumor.
Whole animals and excised tumors were imaged utilizing the Maestro 420 In-Vivo Spectral Imaging System (Cambridge Resources and Instrumentation, Inc.).

[7] = aggregate MW at 0.05 mg/ml peptide
[8] = aggregate MW at 0.1 mg/ml peptide
[9] = aggregate MW at 0.2 mg/ml peptide
[10] = aggregate MW at 0.4 mg/ml peptide
[11] = 3 mg/kg intraperitoneally twice weekly
[12] = 12 mg/kg intraperitoneally twice weekly

Molecule | N, degree of aggregation (molecules per particle) ([2]; 0.05 mg/ml peptide) | N, degree of aggregation (molecules per particle) ([2]; 0.1 mg/ml peptide) | N, degree of aggregation (molecules per particle) ([2]; 0.2 mg/ml peptide) | MW (g/mol) [2, 7] | MW (g/mol) [2, 8] | MW (g/mol) [2, 9] | N, degree of aggregation (molecules per particle) ([2]; 0.4 mg/ml peptide) | MW (g/mol) [2, 10] | also measured
NCCCN1CCN(CCCNc2ccc3ncn4c5ccccc5c(=O)c2c34)CC1 [WMC77, 5-{3-[4-(aminopropyl)-piperazin-1-yl]-propylamino}-2,10b-diaza-aceanthrylen-6-one, reference compound] | – | – | – | – | – | – | – | – | Fluorescence Intensity (a.u.) of WMC77 solutions ([1]; No TM peptide): 622 a.u.
LLFVITLPFWAVDAVANWYFGNDD [SEQ ID NO: 1] | 4090 molecules per particle | 2478 molecules per particle | 2494 molecules per particle | 11,400,000 ± 40,000 g/mol | 6,906,000 ± 22,000 g/mol | 6,952,000 ± 22,000 g/mol | – | – | –
LLFVITLPFWAVDAVANWYFGNKK [SEQ ID NO: 6] | – | – | – | – | – | – | – | – | particle size and uniformity [3]: much large particles with highly variable diameters
SEQ ID NO: 1-GGGGG: TM peptide of SEQ ID NO: 1 with polyglycine tail GGGGG (LLFVITLPFWAVDAVANWYFGNDD; C-terminal GGGGG tail) | 1614 molecules per particle | 664 molecules per particle | 282 molecules per particle | 4,957,000 ± 8,000 g/mol | 2,041,000 ± 4,000 g/mol | 865,600 ± 2,700 g/mol | 55 molecules per particle | 169,700 ± 300 g/mol | –
SEQ ID NO: 1-PEG11: TM peptide of SEQ ID NO: 1 with hydrophilic oligomer PEG11 added (LLFVITLPFWAVDAVANWYFGNDD; not fully specified; also: PEG11 added) | 743 molecules per particle | 316 molecules per particle | 137 molecules per particle | 2,515,000 ± 69,000 g/mol | 1,069,000 ± 20,000 g/mol | 463,800 ± 6,800 g/mol | 54 molecules per particle | 183,200 ± 900 g/mol | emission maxima of WMC77 [4]: a shift in emission maxima; fluorescence emission intensity of WMC77 [4]: an increase in fluorescence emission intensity
SEQ ID NO: 1-PEG27: TM peptide of SEQ ID NO: 1 with hydrophilic oligomer PEG27 added; CXCR4 peptide nanoparticles (LLFVITLPFWAVDAVANWYFGNDD; not fully specified; also: PEG27 added) | 286 molecules per particle | 176 molecules per particle | 167 molecules per particle | 1,171,000 ± 190,000 g/mol | 719,400 ± 100,700 g/mol | 682,000 ± 105,000 g/mol | 90 molecules per particle | 367,100 ± 38,400 g/mol | survival by Day 75 [5, 11]: about 40%; survival by Day 91 [5, 11]: no surviving animals; body weight [5, 12]: continued to gain weight; survival by Day 75 [5, 12]: 100%; survival until the end of the experiment (Day 140) [5, 12]: a significant number of the animals administered 12 mg/kg of nanoparticles survived
SEQ ID NO: 1-PEG38: TM peptide of SEQ ID NO: 1 with PEG38, obtained by sequential coupling of PEG11 and PEG27 (LLFVITLPFWAVDAVANWYFGNDD; also: PEG38 added (PEG11 + PEG27)) | – | 93 molecules per particle | 19 molecules per particle | – | 436,100 ± 20,300 g/mol | 90,950 ± 9,210 g/mol | 24 molecules per particle | 110,500 ± 5,600 g/mol | emission maxima of WMC77 [4]: a shift in emission maxima; fluorescence emission intensity of WMC77 [4]: an increase in fluorescence emission intensity
SEQ ID NO: 8-PEG27: deletion mutant lacking the five N-terminal amino acid residues of SEQ ID NO: 1, with PEG27 (TLPFWAVDAVANWYFGNDD; not fully specified; also: PEG27 added) | – | 9 molecules per particle | 10 molecules per particle | – | 29,550 ± 4,630 g/mol | 32,660 ± 6,730 g/mol | 10 molecules per particle | 34,520 ± 7,850 g/mol | –
TM peptide-Alexa conjugate: CXCR4-TM domain 2-derived pegylated peptide SEQ ID NO: 1-Peg11-Hcy-Peg27 labeled with Alexa546 fluorescent dye (LLFVITLPFWAVDAVANWYFGNDD; also: Peg11-Hcy-Peg27 attached, Alexa546 label) | – | – | – | – | – | – | – | – | Fluorescence Intensity (a.u.) of WMC77 solutions ([1]; with additive): 295 a.u.; penetration of tumor vasculature [6]: effectively penetrate tumor vasculature
